Values quoted from earlier work, collected in publication PMC5672155.
One block for each substance: values may come before it.

What was measured:
Sec62 (Homo sapiens) = Sec62 (Homo sapiens) (UniProt Q99442)
Sec61α (Homo sapiens) = Sec61α (Homo sapiens) (UniProt P61619)
Sec63 (Homo sapiens) = Sec63 (Homo sapiens) (UniProt Q9UGP8)
LC3 (Homo sapiens) = LC3 (Homo sapiens) (UniProt Q9GZQ8)

Chain of UniProt Q99442 (Q99442 whole entry): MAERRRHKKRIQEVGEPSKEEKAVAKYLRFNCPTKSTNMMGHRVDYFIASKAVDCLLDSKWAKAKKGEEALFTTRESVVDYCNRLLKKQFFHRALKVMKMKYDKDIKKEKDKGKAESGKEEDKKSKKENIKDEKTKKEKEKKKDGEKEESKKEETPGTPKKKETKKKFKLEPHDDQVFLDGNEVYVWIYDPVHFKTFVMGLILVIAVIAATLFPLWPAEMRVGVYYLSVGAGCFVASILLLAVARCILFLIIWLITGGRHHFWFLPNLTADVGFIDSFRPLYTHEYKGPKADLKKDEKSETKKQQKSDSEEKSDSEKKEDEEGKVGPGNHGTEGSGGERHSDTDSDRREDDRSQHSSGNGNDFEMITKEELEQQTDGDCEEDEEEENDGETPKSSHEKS

Kd (Sec62 (Homo sapiens)): 0.005 µM
Substance: Sec63 (from UniProt Q9UGP8)

Kd (Sec61α (Homo sapiens)): 500 µM | Kd (Sec63 (Homo sapiens)): 5 µM
Substance: BiP (from UniProt P11021)

Kd (LC3 (Homo sapiens)): 20 µM
Substance: Sec62 (from UniProt Q99442)
